In the supplement of paper PMC9942255 one finds AmyQ secretion efficiency data, which are given here for 83 sequences.

For this data set, the system named is Bacillus subtilis DB104 (SP-AmyQ fusion secretion). Kind of data set: AmyQ secretion efficiency, weighted average sort bin (1 = best secretion, 10 = worst) (bin number (weighted average, 1-10)); higher = lower secretion efficiency. In outline: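 In this assay, the secretion score is defined as the average bin number weighted by read frequency, normalised to beads per bin, with low-abundance sequences not counted. B. subtilis DB104 cells expressing mature AmyQ behind designed signal peptides (amyE-integrated) were enclosed with fluorescein-starch in ~65 nL alginate beads at about 0.3 cells per bead. Beads grew about 13 h at room temperature, were stained with nile red, and occupied beads went into 10 equally populated green/red fluorescence ratio bins by large-particle flow cytometry, whose amplicons were Illumina-sequenced.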

“And” between values parts separate entries of the source, which are not always exact repeats. Equal values may be shown once.

For the sequence MKKKQVMLALTAAAGLGLTALVFFHSAPAAKAAPL, the AmyQ secretion efficiency is 2.39.

Consider MKKKQVMLALTAAAGLHSAPAAKAAPL, for which the AmyQ secretion efficiency turned out to be 3.17.

The sequence MKKKQVMLKRKKKKGLGLTALHSAPAAKAAPL came in with an AmyQ secretion efficiency of 8.05.

Consider MKKKQVMLKRTAAAGLGLTALHSAPAAKAAPL, for which the AmyQ secretion efficiency stood at 6.55.

Sequence MKKKQVMLRKKKAAGLGLTALHSAPAAKAAPL came in with an AmyQ secretion efficiency of 7.14.

In turn, MKKKQVMTLNSSLALTAAAGLGLTALHSAPAAKAAPL registered an AmyQ secretion efficiency of 4.06.

Take MKKKQVSHAIIISVMLSFVIAVFHTIHASERKR: the AmyQ secretion efficiency is 7.08.

MKKKQVSHAIIISVMLSFVIAVFHTIHASYLTP displayed an AmyQ secretion efficiency of 6.98.

In turn, MKKKQVSHAIIISVMLSFVIAVFHTIHKSELTP showed an AmyQ secretion efficiency of 4.63.

Sequence MKKKQVSHAIIISVMLSFVIAVFRRHRKHASELTP returned an AmyQ secretion efficiency of 7.4.

Sequence MKKKQVSHARSTKTRRQFVIAVFHTIHASELTP returned an AmyQ secretion efficiency of 8.17.

Sequence MKKKRALTLCPAIVGSLLFFTAPASAHVS had an AmyQ secretion efficiency of 3.92.

With MKKKRKKFVAVAALSTTAFGAHASAKEI, the AmyQ secretion efficiency is 6.1.

In turn, MKKKRKKGGTGSAIVGTTLVVTPAEAATI displayed an AmyQ secretion efficiency of 7.88.

MKKKRKKIAGVLTVAAAAMTAKMYATAKGN returned an AmyQ secretion efficiency of 7.67.

On to MKKKRKRLAAGLTASAIVGTTLVVTPAEAATI, for which the AmyQ secretion efficiency came to 2.55.

As for MKKKRLAAGLTASAIVGTTLVVTPAEAATI, the AmyQ secretion efficiency is 4.26 and 3.28.

The sequence MKKKRLFIFSAILTLSIFAPNETFAQTA yielded an AmyQ secretion efficiency of 2.43.

In the case of MKKKRLLAGALTATVLFGTCAVDVPGIISPKTAEAASQ, the AmyQ secretion efficiency was 1.66.

Regarding MKKKRLLLATSALTFSLSLVLPLDGHAKAQEV, the AmyQ secretion efficiency worked out at 2.9.

In turn, MKKKRMSFVAVAALSTTAFGAHASAKEI displayed an AmyQ secretion efficiency of 4.12.

MKKKRRKCSICCAAVLLAGGAAQAEAV: the AmyQ secretion efficiency was 6.1.

MKKKRRKLALTAAAGLGLTALHSAPAAKAAPL: the AmyQ secretion efficiency came to 2.69.

On to MKKKRRRVLMAFIICLSLILSVLAAPPSGAKAESV, for which the AmyQ secretion efficiency is 2.

The sequence MKKKRVMLALTAAAGLGLTALHSAPAAKAAPL returned an AmyQ secretion efficiency of 2.47.

Turning to MKKKSQQQGGVSAVVGSSMAAAPAEAKTI, the AmyQ secretion efficiency turned out to be 7.9.

MKKKSTVFLSVVLVTTVFLVKQQESVAQAKQL had an AmyQ secretion efficiency of 2.06.

For “MKKKTLSLFVGLMLLIGLLFSGSLPYNPNAAEASSS [wt_amyM]”, the AmyQ secretion efficiency was determined as 3.81.

On to MKKKVKIAGVLTVAAAAMTAKMYATAKGN, for which the AmyQ secretion efficiency was 6.8.

Consider MKKLAAGLTASAIVGTTLVVTPAEAATI, for which the AmyQ secretion efficiency is 2.27.

With MKKLALTAAAGLGLTALHSAPAAKAAPL, the AmyQ secretion efficiency is 3.02.

The sequence MKKLCVMMLLFSAIASFPVSAQAKDQ came in with an AmyQ secretion efficiency of 2.86.

Sequence MKKLFIFSAILTLSIFAPNETFAQTA returned an AmyQ secretion efficiency of 2.72.

MKKLILAFILSAAAAVGLFTFGGVQQASAKEL showed an AmyQ secretion efficiency of 4.

Sequence MKKLILAGIALFVFISPLKSHKT came in with an AmyQ secretion efficiency of 5.8.

For the sequence MKKLIMALVILGALGTSYISADSS, the AmyQ secretion efficiency was 6.77 and 6.15.

For the sequence MKKLIMALVILGALKKRKKKISADSS, the AmyQ secretion efficiency turned out to be 8.07.

In the case of MKKLIMALVILGALRKRYISADSS, the AmyQ secretion efficiency worked out at 7.22.

In the case of MKKLIMMTGLLFGLTSPAFAAEK, the AmyQ secretion efficiency stood at 2.43.

As to MKKLIQVMIMFTLLLTMAFSADAADS, the AmyQ secretion efficiency is 4.44.

In the case of MKKLIVLLFFSFFGVQPIHAKKQ, the AmyQ secretion efficiency came out at 5.47.

On to MKKLKRKKVILGALGTSYISADSS, for which the AmyQ secretion efficiency was 7.53.

Regarding MKKLLAAGIIGLLTVEDDEDDSFAAEK, the AmyQ secretion efficiency was 8.23.

In the case of MKKLLAAGIIGLLTVEEESPSFAAEK, the AmyQ secretion efficiency came out at 6.63.

MKKLLAAGIIGLLTVFIAVPSFAAEK: the AmyQ secretion efficiency was found to be 2.33.

For MKKLLAAGIIGLLTVQTDQPSFAAEK, the AmyQ secretion efficiency was determined as 4.21.

MKKLLAAGIIGLLTVRKKSPSFAAEK had an AmyQ secretion efficiency of 8.11.

For the sequence MKKLLAAGIIGLLTVRRRKKKSFAAEK, the AmyQ secretion efficiency is 7.21.

MKKLLAAGIIGLLTVSIASPAFAAEK: the AmyQ secretion efficiency is 2.44.

The sequence MKKLLAAGIIGLLTVSIASPCFAAEK showed an AmyQ secretion efficiency of 2.42.

As for MKKLLAAGIIGLLTVSIASPGFAAEK, the AmyQ secretion efficiency came out at 2.84.

Turning to MKKLLAAGIIGLLTVSIASPGFVFSFAAEK, the AmyQ secretion efficiency came to 8.62.

In turn, MKKLLAAGIIGLLTVSIASPHFAAEK gave an AmyQ secretion efficiency of 7.4.

MKKLLAAGIIGLLTVSIASPIFAAEK gave an AmyQ secretion efficiency of 1.99.

In turn, MKKLLAAGIIGLLTVSIASPLFAAEK showed an AmyQ secretion efficiency of 3.02.

The sequence MKKLLAAGIIGLLTVSIASPMFAAEK yielded an AmyQ secretion efficiency of 3.35.

In turn, MKKLLAAGIIGLLTVSIASPNFAAEK registered an AmyQ secretion efficiency of 5.52.

The sequence MKKLLAAGIIGLLTVSIASPQFAAEK registered an AmyQ secretion efficiency of 6.75.

MKKLLAAGIIGLLTVSIASPSFAADD: the AmyQ secretion efficiency is 2.83.

With MKKLLAAGIIGLLTVSIASPSFAASC, the AmyQ secretion efficiency was 1.59.

MKKLLAAGIIGLLTVSIASPSFAASD gave an AmyQ secretion efficiency of 2.22.

For the sequence MKKLLAAGIIGLLTVSIASPSFARRK, the AmyQ secretion efficiency was found to be 6.83.

For the sequence MKKLLAAGIIGLLTVSIASPSFEAEK, the AmyQ secretion efficiency was 6.63.

Take MKKLLAAGIIGLLTVSIASPSFGAEK: the AmyQ secretion efficiency was found to be 4.39.

As for MKKLLAAGIIGLLTVSIASPSFHAEK, the AmyQ secretion efficiency came out at 6.26.

In turn, MKKLLAAGIIGLLTVSIASPSFKAEK yielded an AmyQ secretion efficiency of 5.02.

MKKLLAAGIIGLLTVSIASPSFLAEK displayed an AmyQ secretion efficiency of 5.65.

Consider MKKLLAAGIIGLLTVSIASPSFPAEK, for which the AmyQ secretion efficiency was 7.88.

Consider MKKLLAAGIIGLLTVSIASPSFQAEK, for which the AmyQ secretion efficiency came to 7.82.

MKKLLAAGIIGLLTVSIASPSFRAEK came in with an AmyQ secretion efficiency of 7.12.

In the case of MKKLLAAGIIGLLTVSIASPSFSAEK, the AmyQ secretion efficiency stood at 3.02.

As to MKKLLAAGIIGLLTVSIASPSFTAEK, the AmyQ secretion efficiency was 6.63.

MKKLLAAGIIGLLTVSIASPSFVAEK returned an AmyQ secretion efficiency of 6.79.

Regarding MKKLLAAGIIGLLTVSIASPSFWAEK, the AmyQ secretion efficiency is 7.9.

In turn, MKKLLAAGIIGLLTVSIASPSFYAEK showed an AmyQ secretion efficiency of 7.71.

MKKLLAAGIIGLLTVSIASPTFAAEK registered an AmyQ secretion efficiency of 2.52.

The sequence MKKLLAAGIIGLLTVSIASPVFAAEK returned an AmyQ secretion efficiency of 2.43.

In turn, MKKLLAAGIIGLLTVSIASPWFAAEK displayed an AmyQ secretion efficiency of 7.98.

Consider MKKLLAAGIIGLLTVSIASPYFAAEK, for which the AmyQ secretion efficiency was found to be 6.19.

In turn, MKKLLAAGIIGLLTVSSFAAEK came in with an AmyQ secretion efficiency of 6.74.

Sequence MKKLLAAGIIGLLTVTLVFLVVLLSIASPSFAAEK had an AmyQ secretion efficiency of 2.43.

MKKLLAAGIIGLLTVTSIASPSFAAEK showed an AmyQ secretion efficiency of 2.48.

As to MKKLLAAGIIGLLTVTVFVTSIASPSFAAEK, the AmyQ secretion efficiency came to 2.51.
